Consider one substance from patent US7291768.

Series [1] concerns the target GAD-OsMYBS2 (Oryza sativa) (UniProt B8BI93). The series is described as follows: one_hybrid. Particulars: LacZ increase vs no OsMYBS.
The target in series [2] is T1, GAD-OsMYBS1 (Oryza sativa) (UniProt B8A9B2).
T1 sequence: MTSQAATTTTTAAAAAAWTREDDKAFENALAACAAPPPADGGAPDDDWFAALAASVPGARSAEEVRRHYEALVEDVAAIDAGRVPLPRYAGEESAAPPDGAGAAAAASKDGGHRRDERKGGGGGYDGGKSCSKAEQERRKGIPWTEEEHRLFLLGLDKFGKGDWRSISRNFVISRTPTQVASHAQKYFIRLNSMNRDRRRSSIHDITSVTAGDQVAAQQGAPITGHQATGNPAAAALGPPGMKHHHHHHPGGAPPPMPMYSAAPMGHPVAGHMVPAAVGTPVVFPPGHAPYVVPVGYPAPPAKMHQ
The series is described as follows: one_hybrid. Particulars: LacZ increase vs no OsMYBS.

GAD-OsMYBS2 (Oryza sativa), sequence (B8BI93 other isoform, or with tags, fused parts or gaps): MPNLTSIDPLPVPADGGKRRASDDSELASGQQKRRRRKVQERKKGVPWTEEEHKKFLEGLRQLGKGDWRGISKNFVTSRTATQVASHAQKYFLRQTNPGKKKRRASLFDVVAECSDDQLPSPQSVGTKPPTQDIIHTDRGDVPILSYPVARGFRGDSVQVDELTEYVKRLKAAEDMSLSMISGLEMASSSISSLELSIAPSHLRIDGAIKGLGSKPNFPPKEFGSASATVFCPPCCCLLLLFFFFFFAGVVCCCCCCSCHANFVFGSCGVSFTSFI

Take “8x(TATCCA+F), eight repeats of -133 to -82 of alphaAmy3”: the activity in series [1] is 5 fold; in series [2] it was 3 fold.
